Common to all, as to assay: cell-based or functional assay
The target in assay [1] is HIV-1 93UG077 envelope glycoprotein (Env) on pseudovirus (HIV-1).
Assay [2] deals with HIV-1 CMU02 envelope glycoprotein (Env) on pseudovirus (HIV-1).
Assay [3] addresses HIV-1 Env of isolate 92UG046 (clade D pseudovirus) (HIV-1).
Assay [4] addresses HIV-1 Env of isolate 98CN006 (CRF08 BC) (HIV-1 isolate 98CN006).
Assay [5] deals with HIV-1 Env of isolate APV_13, clade B, on pseudovirus (HIV-1).
For assay [6], the target named is HIV-1 Env of isolate APV_17, clade B, on pseudovirus (HIV-1).
Assay [7] has as its target HIV-1 Env of isolate MGRM-Chronic-B-003, clade B, on pseudovirus (HIV-1).
Assay [8] addresses HIV-1 Env of isolate MGRM-D-013 (clade D pseudovirus) (HIV-1).
In assay [9] the target is HIV-1 Env of isolate MGRM-D-022 (clade D pseudovirus) (HIV-1).
Assay [10] addresses HIV-1 Env of isolate MGRM-D-026 (clade D pseudovirus) (HIV-1).
In assay [11] the target is HIV-1 Env of isolate MGRM-D-029 (clade D pseudovirus) (HIV-1).
The target in assay [12] is HIV-1 Env of pseudovirus MGRM-AG-003 (clade CRF_AG) (HIV-1).
The target of assay [13] is HIV-1 Env of pseudovirus MGRM-Chronic-B-017 (HIV-1).
In assay [14] the target is HIV-1 Env of pseudovirus MGRM-Chronic-B-018 (HIV-1).
In assay [15] the target is HIV-1 Env of pseudovirus MGRM-Chronic-B-020 (HIV-1).
Assay [16] has as its target HIV-1 Env of pseudovirus MGRM-G-025 (HIV-1, clade G isolate MGRM-G-025).
Assay [17] has as its target HIV-1 IAVI-C22 envelope glycoprotein (Env) on pseudovirus (HIV-1).
The target of assay [18] is HIV-1 envelope glycoprotein (Env) of isolate 92UG037, clade A (HIV-1).
The target of assay [19] is HIV-1 Env of isolate MGRM-Chronic-B-008 (subtype B pseudovirus) (HIV-1).
In assay [20] the target is HIV-1 Env of isolate MGRM-Chronic-B-011 (subtype B pseudovirus) (HIV-1).
For assay [21], the target named is HIV-1 Env of isolate MGRM-D-005 (pseudovirus) (HIV-1).
In assay [22] the target is HIV-1 Env of isolate MGRM-F1-008 (pseudovirus) (HIV-1).
Assay [23] has as its target HIV-1 Env of isolate MGRM-F1-023 (HIV-1).
Assay [24] has as its target HIV-1 Env of isolate TRJ04551.58 (subtype B pseudovirus) (HIV-1).
Assay [25] deals with HIV-1 NL43 Env (pseudovirus, clade B) (HIV-1).
Assay [26] addresses aMLV envelope, on pseudovirus (negative control virus).
For assay [27], the target named is HIV-1 APV17 Env (pseudovirus, clade B) (HIV-1).
The target in assay [28] is HIV-1 JRFL Env (pseudovirus, clade B) (HIV-1).
For assay [29], the target named is HIV-1 MGRM-D-001 Env (pseudovirus) (HIV-1).

Chain of 1443_C16 (PG16) (TCN-116) (antibody) (VH): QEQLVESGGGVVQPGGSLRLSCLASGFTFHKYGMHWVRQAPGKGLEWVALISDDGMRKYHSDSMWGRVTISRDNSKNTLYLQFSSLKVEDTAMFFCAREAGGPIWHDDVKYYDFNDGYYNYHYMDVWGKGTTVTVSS
Chain of 1443_C16 (PG16) (TCN-116) (antibody) (VL): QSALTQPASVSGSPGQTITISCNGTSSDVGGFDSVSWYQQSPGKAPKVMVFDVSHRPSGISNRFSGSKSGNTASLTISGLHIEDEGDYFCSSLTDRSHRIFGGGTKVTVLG

On to 2F5 (antibody), for which the figures for the IC50, pseudovirus neutralization in [1], in assay [2] and in assay [17] were 4.45 µg/mL, 0.38 µg/mL and greater than 50 µg/mL, respectively. Also, the IC50 (µg/ml), pseudovirus neutralization was greater than 50 µg/mL in [3]; greater than 50 µg/mL in [4]; 3.81 µg/mL in assay [5]; 4.61 µg/mL in assay [6]; 1 µg/mL in assay [7]; 2.12 µg/mL in assay [8]. The IC50 (µg/ml), pseudovirus neutralization in [9] was 8.45 µg/mL; in assay [10] it was 4.37 µg/mL; in assay [11] it was greater than 50 µg/mL; in assay [13] it was greater than 50 µg/mL; in assay [14] it was 10.8 µg/mL; in assay [15] it was 0.78 µg/mL. Besides, the results for the IC50 (µg/ml), pseudovirus neutralization in assay [16] and in [18] were greater than 50 µg/mL and 3.24 µg/mL, respectively. Further, in assay [12], the IC50 – broadly, the concentration that gives 50% inhibition – came to 0.14 µg/mL.
Turning to 2G12 (antibody), the IC50, pseudovirus neutralization in [1], in assay [2] and in assay [17] was greater than 50 µg/mL in each case. The IC50 (µg/ml), pseudovirus neutralization in [3] is greater than 50 µg/mL; in assay [4] it was greater than 50 µg/mL; in assay [5], 9.24 µg/mL; in assay [6], greater than 50 µg/mL; in [7] it was 0.06 µg/mL; in assay [8], greater than 50 µg/mL. Also, the IC50 (µg/ml), pseudovirus neutralization was greater than 50 µg/mL in assay [9]; greater than 50 µg/mL in assay [10]; greater than 50 µg/mL in assay [11]; greater than 50 µg/mL in assay [13]; greater than 50 µg/mL in [14]; 0.2 µg/mL in [15]. Further, the values for the IC50 (µg/ml), pseudovirus neutralization in assay [16] and in [18] were 31.9 µg/mL and 45.2 µg/mL, respectively. Besides, in assay [12], the IC50 was greater than 50 µg/mL.
For the substance 4E10 (antibody), the IC50, pseudovirus neutralization in assay [1] is 11.2 µg/mL; in assay [2], 0.59 µg/mL; in [17], 1.02 µg/mL. The IC50 (µg/ml), pseudovirus neutralization in assay [3] turned out to be 12.2 µg/mL; in [4], 1.91 µg/mL; in [5], 7.33 µg/mL; in assay [6] it was 10.5 µg/mL; in assay [7], 3.5 µg/mL; in [8] it was 5.38 µg/mL. The IC50 (µg/ml), pseudovirus neutralization is 16.9 µg/mL in assay [9]; 2.95 µg/mL in assay [10]; 5.3 µg/mL in assay [11]; 2.77 µg/mL in assay [13]; 23.2 µg/mL in assay [14]; 2.45 µg/mL in assay [15]. The IC50 (µg/ml), pseudovirus neutralization in assay [16] was determined as 1.7 µg/mL; in assay [18] it was 8.84 µg/mL. The substance also displayed an IC50 in assay [12] of 0.64 µg/mL.
Turning to 1443_C16 (PG16) (TCN-116) (antibody), the figures for the IC50, pseudovirus neutralization in [1], in assay [2] and in assay [17] were greater than 50 µg/mL, greater than 50 µg/mL and 0.0687 µg/mL, respectively. Further, the IC50 (µg/ml), pseudovirus neutralization was 1.42 µg/mL in [3]; greater than 50 µg/mL in assay [4]; greater than 50 µg/mL in assay [5]; 24.8 µg/mL in assay [6]; 0.19 µg/mL in assay [7]; 0.11 µg/mL in assay [8]. Further, the IC50 (µg/ml), pseudovirus neutralization in assay [9] is greater than 50 µg/mL; in assay [10], greater than 50 µg/mL; in assay [11], greater than 50 µg/mL; in assay [13], 0.02 µg/mL; in assay [14], 0.7 µg/mL; in [15], greater than 50 µg/mL. Besides, the IC50 (µg/ml), pseudovirus neutralization in [16] is greater than 50 µg/mL; in [18], 0.01 µg/mL. In addition, in assay [12], the IC50 was greater than 50 µg/mL.
Consider 4838_L06 (PGT-121) (antibody), for which the IC50 (µg/mL), pseudovirus neutralization in [19] was 0.007 µg/mL; in [20], greater than 50 µg/mL; in assay [23], 0.097 µg/mL; in assay [24], 7.09 µg/mL. In addition, the IC50, pseudovirus neutralization was greater than 50 µg/mL in [21], greater than 50 µg/mL in [22] and greater than 10 µg/mL in assay [26]. Besides, the IC50 neutralization in assay [25] was greater than 10 µg/mL.
Regarding 4858_P08 (PGT-123) (antibody), the neutralization IC50 is 0.0303 µg/mL in assay [1] and greater than 10 µg/mL in [2]. For the same substance, the neutralization IC80 in assay [1] was 0.143 µg/mL; in assay [2], greater than 10 µg/mL. In addition, the neutralization IC90 in assay [1] was 0.35 µg/mL; in [2], greater than 10 µg/mL. The results for the neutralization IC95 in assay [1] and in assay [2] were 0.78 µg/mL and greater than 10 µg/mL, respectively. The results for the IC50 neutralization in assay [27], in assay [28] and in assay [25] were 0.18 µg/mL, 0.0283 µg/mL and greater than 10 µg/mL, respectively. Also, the IC50 (µg/mL), pseudovirus neutralization in assay [19] is 0.01 µg/mL; in assay [20] it was greater than 50 µg/mL; in assay [23], 0.053 µg/mL; in assay [24] it was 16.9 µg/mL. For the same substance, the values for the IC50, pseudovirus neutralization in assay [21], in assay [22] and in assay [26] were greater than 50 µg/mL, greater than 50 µg/mL and greater than 10 µg/mL, respectively. Moreover, the neutralization IC50 (pseudovirus) in assay [29] was found to be 0.215 µg/mL.
Take 4877_D15 (PGT-122) (antibody): the IC50 neutralization is 0.522 µg/mL in assay [27], 0.0471 µg/mL in [28] and greater than 10 µg/mL in assay [25]. Also, the IC50 (µg/mL), pseudovirus neutralization is 0.017 µg/mL in assay [19], greater than 50 µg/mL in [20], 0.154 µg/mL in assay [23] and greater than 50 µg/mL in assay [24]. Also, the figures for the IC50, pseudovirus neutralization in [21], in assay [22] and in [26] were greater than 50 µg/mL, greater than 50 µg/mL and greater than 10 µg/mL, respectively. In assay [29], this substance displayed a neutralization IC50 (pseudovirus) of 0.867 µg/mL.
As to 5123_A06 (PGT-125) (antibody), the IC50 neutralization in assay [27] is 7.31 µg/mL; in assay [28], 0.0156 µg/mL; in [25], greater than 10 µg/mL. For the same substance, the IC50 (µg/mL), pseudovirus neutralization in [19] is greater than 50 µg/mL; in assay [20], 3.23 µg/mL; in assay [23] it was 0.12 µg/mL; in assay [24], 0.019 µg/mL. The figures for the IC50, pseudovirus neutralization in assay [21], in assay [22] and in [26] were greater than 50 µg/mL, 0.361 µg/mL and greater than 10 µg/mL, respectively. In addition, the neutralization IC50 (pseudovirus) in assay [29] turned out to be 2.31 µg/mL.
For the substance 5141_B17 (PGT-126) (antibody), the IC50, pseudovirus neutralization is 0.0256 µg/mL in assay [1]; greater than 10 µg/mL in assay [2]; 0.792 µg/mL in assay [21]; greater than 50 µg/mL in [22]; greater than 10 µg/mL in assay [26]. Further, the IC80 (pseudovirus neutralization) in [1] was 0.102 µg/mL; in assay [2] it was greater than 10 µg/mL. Also, the IC90 (pseudovirus neutralization) in [1] was 0.238 µg/mL; in assay [2], greater than 10 µg/mL. Besides, the IC95 (pseudovirus neutralization) in assay [1] was 0.577 µg/mL; in assay [2], greater than 10 µg/mL. Also, the IC50 neutralization in assay [27] was 0.501 µg/mL; in assay [28], 0.014 µg/mL; in [25] it was greater than 10 µg/mL. Besides, the IC50 (µg/mL), pseudovirus neutralization in [19] turned out to be 5.89 µg/mL; in [20], 0.108 µg/mL; in assay [23], 0.009 µg/mL; in assay [24] it was 0.025 µg/mL. The same substance yielded a neutralization IC50 (pseudovirus) in assay [29] of 0.0639 µg/mL.
Take 5145_B14 (PGT-127) (antibody): the IC50 (µg/mL), pseudovirus neutralization in [19] is 21.5 µg/mL; in assay [20] it was 0.297 µg/mL; in assay [23], 0.119 µg/mL; in [24], 0.063 µg/mL. In addition, the IC50, pseudovirus neutralization was 6.02 µg/mL in [21] and greater than 50 µg/mL in assay [22].

Source of the values: patent US20250320281A1.
